Measured values: EP2246362B1, “Polymer conjugates of mutated neublastin” (Biogen Idec MA Inc., priority 2003, dated 2004)
Numbering of substitutions follows the chain as printed. Numbers in names are those of the source. Unless stated, no cut-off for active and inactive is given here. Read-outs that look alike come from different tables or passages of the source.

Columns and labels:
[1] = molecular target: T1, c-Ret on NB41A3-mRL3 cells (UniProt P35546 29-1115, limits assumed); assay: cell-based or functional assay
T1 sequence (P35546 29-1115 limits assumed): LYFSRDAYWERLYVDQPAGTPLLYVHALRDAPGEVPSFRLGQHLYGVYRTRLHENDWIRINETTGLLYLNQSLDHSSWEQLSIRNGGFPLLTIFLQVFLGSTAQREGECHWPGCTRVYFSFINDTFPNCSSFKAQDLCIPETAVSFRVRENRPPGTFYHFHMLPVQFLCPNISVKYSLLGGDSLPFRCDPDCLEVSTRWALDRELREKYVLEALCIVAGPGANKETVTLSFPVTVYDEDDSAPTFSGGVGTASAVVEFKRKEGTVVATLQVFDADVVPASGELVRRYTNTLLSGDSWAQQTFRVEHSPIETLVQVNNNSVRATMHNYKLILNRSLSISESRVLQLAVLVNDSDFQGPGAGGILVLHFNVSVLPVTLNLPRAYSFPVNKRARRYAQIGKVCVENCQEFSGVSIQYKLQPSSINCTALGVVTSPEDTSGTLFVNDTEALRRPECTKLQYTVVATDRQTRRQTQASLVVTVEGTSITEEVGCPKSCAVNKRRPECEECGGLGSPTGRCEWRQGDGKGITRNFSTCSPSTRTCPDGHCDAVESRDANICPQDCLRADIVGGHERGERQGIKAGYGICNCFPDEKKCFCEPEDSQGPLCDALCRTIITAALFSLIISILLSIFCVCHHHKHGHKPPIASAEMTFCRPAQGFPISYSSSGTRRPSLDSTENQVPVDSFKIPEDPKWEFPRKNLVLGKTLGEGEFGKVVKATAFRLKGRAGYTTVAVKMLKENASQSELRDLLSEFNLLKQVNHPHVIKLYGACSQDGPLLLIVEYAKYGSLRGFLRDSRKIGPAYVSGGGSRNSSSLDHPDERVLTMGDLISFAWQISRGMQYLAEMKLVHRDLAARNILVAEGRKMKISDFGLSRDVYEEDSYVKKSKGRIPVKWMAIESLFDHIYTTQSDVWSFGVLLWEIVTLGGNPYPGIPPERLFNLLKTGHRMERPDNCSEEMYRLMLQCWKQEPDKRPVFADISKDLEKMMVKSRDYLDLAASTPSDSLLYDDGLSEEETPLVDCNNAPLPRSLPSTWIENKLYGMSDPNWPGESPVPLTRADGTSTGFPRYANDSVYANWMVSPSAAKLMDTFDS

[2] = set-up: species or system mice; details: mouse, in vivo, sc
Excerpt: The pharmokinetic properties of various PEGylated and non-PEGylated mutated neublastin products in rat and mouse models were examined (see Table 8 for summary of results). The analysis of the PEGylated […] samples are complicated by the presence of adducts comprising 2, 3 and 4 PEGs per molecule, which each will display a different PK profile. In early PK studies, mice were used to facilitate screening through a variety of candidates and routes of administration. […] This difference in bioavailability was particularly pronounced following i.p. administration. Levels in mice reached 1600 ng/mL after 7 hr and remained at 400 ng/mL after 24 hr. In contrast, rat levels were constant at 100 ng/mL for 4-48 hr. Two surprising and unexpected results emerged from the PK studies summarized in Table 8: 1) PEGylation of the amino-terminal amino acids of non-glycosylated neublastin was not sufficient to increase serum exposure substantially, and 2) PEGylation of the amino-terminal amino acid(s) of neublastin together with modification (e.g. PEGylation or glycosylation) of amino acid 95 was sufficient to increase serum exposure substantially.

c-Ret = molecular target: T2, c-Ret (Mus musculus, UniProt O35118+P35546); assay: Kinase Receptor Activation (KIRA) ELISA: neublastin dependent phosphorylation of c-Ret in NB41A3-mRL3 cells; format: cell-based, murine; details: for KIRA: ~Max Efficacy vs WT: relative to wild-type, NB41A3-mRL3 cells; for activity / potency in the KIRA ELISA (in words): compared with wild-type NBN113 / mature form
T2 construct: NB41A3-mRL3 cells, an adherent murine neuroblastoma cell line which expresses Ret and GFRα3; endogenous in cells; host or cells: NB41A3-mRL3 (murine neuroblastoma)
T2 sequence (P35546 29-1115): as the sequence (P35546 29-1115 limits assumed) above
T2 sequence (O35118 29-397): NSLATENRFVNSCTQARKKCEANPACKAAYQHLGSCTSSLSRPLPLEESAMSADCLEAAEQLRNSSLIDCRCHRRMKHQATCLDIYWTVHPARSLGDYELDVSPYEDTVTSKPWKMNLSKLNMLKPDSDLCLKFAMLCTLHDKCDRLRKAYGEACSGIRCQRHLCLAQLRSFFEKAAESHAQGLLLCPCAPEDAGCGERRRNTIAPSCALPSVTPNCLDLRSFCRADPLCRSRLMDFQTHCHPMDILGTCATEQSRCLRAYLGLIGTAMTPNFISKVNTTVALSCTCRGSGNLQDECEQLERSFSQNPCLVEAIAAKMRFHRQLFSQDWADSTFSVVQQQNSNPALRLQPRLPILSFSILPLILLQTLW
Procedure: The potency of PEGylated mutated rat neublastin was measured using neublastin dependent activation/ phosphorylation of c-Ret as a reporter for neublastin activity in an ELISA that was specific for the presence of phosphorylated RET. NB41A3-mRL3 cells, an adherent murine neuroblastoma cell line which expresses Ret and GFRα3, were plated at 2 x 10^5 cells per well in 24-well plates in Dulbecco's modified eagle medium (DMEM), supplemented with 10 % fetal bovine serum, and cultured for 18 h at 37 °C and 5 % CO2.
The cells were washed with PBS, and treated with serial dilutions of neublastin in 0.25 mL of DMEM for 10 min at 37°C and 5 % CO2. Each sample was analyzed in duplicate. The cells were washed with 1 mL of PBS, and lysed for 1h at 4 °C with 0.30 mL of 10 mM Tris HC1, pH 8.0, 0.5 % Nonidet P40, 0.2 % sodium deoxycholate, 50 mM NaF, 0.1 mM Na3 VO4,1 mM phenylmethylsulfonyl fluoride with gently rocking the plates. The lysates were further agitated by repeated pipetting and 0.25 mL of sample was transferred to a 96-well ELISA plate that had been coated with 5 µg/mL of anti-Ret mAb (AA.GE7.3) in 50 mM carbonate buffer, pH 9.6 at 4°C for 18 h, and blocked at room temperature for one hour with block buffer (20 mM Tris HC1 pH 7.5, 150 mM NaCl, 0.1% Tween-20 (TBST) containing 1 % normal mouse serum and 3 % bovine serum albumin).
After a 2 h incubation at room temperature, the wells were washed 6-times with TBST. Phosphorylated Ret was detected by incubating the wells at room temperature for 2 h with 2 µg/mL of horseradish peroxidase (HRP)-conjugated anti-phosphotyrosine 4G10 antibody in block buffer, washing 6-times with TBST, and measuring HRP activity at 450 nm with a colorometric detection reagent. The absorbance values from wells treated with lysate or with lysis buffer were measured and the background corrected signal was plotted as a function of the concentration of neublastin present in the activation mixture.
Neublastin activity was determined by its ability to stimulate c-Ret phosphorylation in NB41A3-mRL3 cells using the KIRA ELISA described in Example 3. Phosphorylated Ret was detected by incubating (2 hours) the captured receptor with HRP-conjugated phosphotyrosine antibody (4G10; 0.2 µg per well). Following the incubation, the wells were washed six times with TBST, and the HRP activity detected at 450 nm with a colorimetric assay. The absorbance values from wells treated with lysate or with lysis buffer alone were measured, background corrected, and the data plotted as a function of the concentration of neublastin present in the activation mixture.

[3] = molecular target: T1, c-Ret on NB41A3-mRL3 cells; assay: cell-based or functional assay; remark: listed apart in the source
[4] = molecular target: T1, c-Ret on NB41A3-mRL3 cells; assay: cell-based or functional assay; remark: listed apart in the source
[5] = estimated EC50, NB41A3-mRL3 cells

## BSA-conjugated neublastin (monosubstituted product) (from UniProt P02769 25-607)
[1]
  IC50 in the KIRA ELISA: 3 to 6 nM

## NBN104 (CHO) (from UniProt Q5T4W7 117-220) (ligand)
[1]
  KIRA: ∼EC50: 0.7 nM
  KIRA: ∼Max Efficacy vs WT: 90%

## 1 X 20 kDa PEG-NBN104 (CHO) (from UniProt Q5T4W7 117-220) (ligand)
[1]
  KIRA: ∼EC50: 0.3 nM
  KIRA: ∼Max Efficacy vs WT: 110%

## 2 X 20 kDa PEG-NBN104 (CHO) (from UniProt Q5T4W7 117-220) (ligand)
[1]
  KIRA: ∼EC50: 1 nM
  KIRA: ∼Max Efficacy vs WT: 105%

B1: 1 X 20 kDa PEG-NBN104 (CHO): CHO derived NBN104 dimer glycosylated at 95,95 with one 20 kDa PEG at amino acid 1 (conjugate)
chain: AAGARGCRLRSQLVPVRALGLGHRSDELVRFRFCSGSCRRARSPHDLSLASLLGAGALRPPPGSRPVSQPCCRPTRYEAVSFMDVNSTWRTVDRLSATACGCLG
[2]
  Exposure in Mice After s.c. Administration: ++
  serum exposure after s.c. administration (in words): high serum exposure
c-Ret; [5]
  EC50: 0.3 nM
c-Ret
  KIRA: ~Max Efficacy vs WT: 110%

B2: 2 X 20 kDa PEG-NBN104 (CHO): CHO derived NBN104 dimer glycosylated at 95,95 with two 20 kDa PEGs at amino acids 1,1 (conjugate)
chain: B1 chain
[2]
  Exposure in Mice After s.c. Administration: ++
  serum exposure after s.c. administration (in words): high serum exposure
c-Ret; [5]
  EC50: 1 nM
c-Ret
  KIRA: ~Max Efficacy vs WT: 105%

B3: 3 X 10 kDa PEG-WT/N95K-NBN106 (ligand)
chain 1: ARATDARGCRLRSQLVPVSALGLGHSSDELIRFRFCSGSCRRARSPHDLSLASLLGAGALRSPPGSRPISQPCCRPTRYEAVSFMDVNSTWRTVDHLSATACGCLG
chain 2: B3 chain 1 with N88K
modifications: 10 kDa PEG on the amino-terminal amino acid and on Lys95; 10 kDa PEG on the amino-terminal amino acid
[3]
  KIRA: ∼EC50: ~0.7 nM
  KIRA: ∼Max Efficacy vs WT: ~115%

B4: 4 X 10 kDa PEG NBN106-N95K (ligand)
chain: B3 chain 1 with N88K
modifications: 10 kDa PEG on the amino-terminal amino acid and on Lys95 of each chain (PEGylated amino acids 1,1,95,95)
[4]
  KIRA ELISA (potency in activating Ret, fold less than wild-type NBN113): ~10 fold
[3]
  KIRA: ∼EC50: ~11 nM
  KIRA: ∼Max Efficacy vs WT: > 80%

B5: 3 X 10 kDa PEG NBN106-N95K (ligand)
chain: B3 chain 1 with N88K
modifications: three 10 kDa PEG per dimer: on both amino-terminal amino acids and on one Lys95 (PEGylated amino acids 1,1,95)
[3]
  KIRA: ∼EC50: ~0.8 nM
  KIRA: ∼Max Efficacy vs WT: ~100%

B6: 3 X 10 kDa PEG-WT/ N95K-NBN106: wild-type/N95K NBN106 heterodimer with three 10 kDa PEGs at amino acids 1,1,95 (conjugate)
chain 1: B3 chain 1
chain 2: B3 chain 1 with N88K
[2]
  Exposure in Mice After s.c. Administration: ++

B7: 4 X 10 kDa PEG NHN106-N95K: homodimer of NBN106-N95K conjugated to four 10 kDa PEG moieties (conjugate)
chain: B3 chain 1 with N88K
[2]
  Exposure in Mice After s.c. Administration: ++
c-Ret
  fold less potent than non-mutated (wild-type) NBN113 in activating Ret: approximately 10 fold
  activity / potency in the KIRA ELISA (in words): reduced potency

B8: rat mutated neublastin NBN106-N95K (non-PEGylated) (ligand)
chain: B3 chain 1 with N88K
[4]
  specific activity in the KIRA ELISA: ~10 nM

B9: 3(,4) X 10 kDa PEG NBN106-N95K (ligand)
chain: B3 chain 1 with N88K
modifications: average of 3.3 10 kDa PEG (SPA-PEG) per dimer: on both amino-terminal amino acids and on one or both Lys95 (PEGylated amino acids 1,1,95 (,95))
[4]
  specific activity in the KIRA ELISA: 10 nM
[3]
  KIRA: ∼EC50: ~1.6 nM
  KIRA: ∼Max Efficacy vs WT: ~90%

B10: 2 X 20 kDa Branched PEG NBN106-N95K: NBN106-N95K dimer with two branched 20 kDa PEGs at amino acids 1,95 (conjugate)
chain: B3 chain 1 with N88K
[2]
  Exposure in Mice After s.c. Administration: ++
c-Ret; [5]
  KIRA: ~EC50: inactive
c-Ret
  KIRA: ~Max Efficacy vs WT: inactive

B11: 4 X 5 kDa PEG NBN106-N95K (ligand)
chain: B3 chain 1 with N88K
modifications: 5 kDa PEG on the amino-terminal amino acid and on Lys95 of each chain (PEGylated amino acids 1,1,95,95)
[3]
  KIRA: ∼EC50: ~1 nM
  KIRA: ∼Max Efficacy vs WT: ~80%

B12: 3 X 10 kDa PEG NBN106-N95K: homodimer of NBN106-N95K conjugated to three 10 kDa PEG moieties (conjugate)
chain: B3 chain 1 with N88K
[2]
  Exposure in Mice After s.c. Administration: ++
c-Ret
  activity / potency in the KIRA ELISA (in words): fully active

B13: 2 X 10 kDa PEG-NBN (ligand)
chain: AGTRSSRARATDARGCRLRSQLVPVSALGLGHSSDELIRFRFCSGSCRRARSPHDLSLASLLGAGALRSPPGSRPISQPCCRPTRYEAVSFMDVNSTWRTVDHLSATACGCLG
modifications: 10 kDa PEG on amino acid 1 of each chain (PEGylated amino acids 1,1)
[3]
  KIRA: ∼EC50: ~0.2 nM
  KIRA: ∼Max Efficacy vs WT: ~72%

B14: wild-type rat neublastin (NBN113), E. coli derived (ligand)
chain: B13 chain
[4]
  IC50 in the KIRA ELISA: 3 to 6 nM
  specific activity in the KIRA ELISA: ~10 nM
[3]
  KIRA: ∼Max Efficacy vs WT: ~100%

B15: 2 X 20 kDa PEG-NBN (ligand)
chain: B13 chain
modifications: 20 kDa PEG on amino acid 1 of each chain (cell printed '1,1 1')
[3]
  KIRA: ∼EC50: ~0.6 nM
  KIRA: ∼Max Efficacy vs WT: ~80%

B16: 1 X 20 kDa Branched PEG-NBN (ligand)
chain: B13 chain
modifications: one 20 kDa branched PEG per dimer, on amino acid 1 of one chain (PEGylated amino acids: 1)
[3]
  KIRA: ∼EC50: ~0.2 nM
  KIRA: ∼Max Efficacy vs WT: ~83%

B17: 2 X 5 kDa PEG-NBN (ligand)
chain: B13 chain
modifications: 5 kDa PEG on amino acid 1 of each chain (PEGylated amino acids 1,1)
[3]
  KIRA: ∼EC50: ~0.2 nM
  KIRA: ∼Max Efficacy vs WT: ~105%

B18: 2 X 20 kDa PEG-NBN: E. coli derived NBN113 dimer with two 20 kDa PEGs at amino acids 1,1 (conjugate)
chain: B13 chain
[2]
  Exposure in Mice After s.c. Administration: +
  serum exposure after s.c. administration (in words): low-to-moderate serum exposure
